Source: the supplement of paper PMC10567573

B1: IKZF1 (parent)
chain: HIKLHSGEKPFKCHLCNYACRRRD

Variants of: B1
Test: protein stability index of a GFP-peptide fusion (GPS, HEK-293T) (PSI 1-6); higher = more stable
Conditions: c terminus: a fixed tail appended
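Further: lentivirally expressed fusions sorted by FACS into six bins by GFP to DsRed ratio, PSI derived from sequencing read proportions per bin multiplied by bin number.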

Row | Variant | protein stability index
1 | HIKLHSGEKPFKCILCNYACRRRD | 1.55
2 | HIKLHSGEKPFKCYLCNYACRRRD | 1.45
3 | HIKLHSGEKPFKCNLCNYACRRRD | 1.69
4 | HIKLHSGEKPFKCDLCNYACRRRD | 2.82
5 | HIKLHSGEKPFKCRLCNYACRRRD | 2.26
6 | HIKLHSGEKPFKCVLCNYACRRRD | 2.23
7 | HIKLHSGEKPFKCWLCNYACRRRD | 2.23
8 | HIKLHSGEKPFKCLLCNYACRRRD | 1.88
9 | HIKLHSGEKPFKCQLCNYACRRRD | 1.83
10 | HIKLHSGEKPFKCCLCNYACRRRD | 3.78
11 | HIKLHSGEKPFKCELCNYACRRRD | 1.66
12 | HIKLHSGEKPFKCGLCNYACRRRD | 1.89
13 | HIKLHSGEKPFKCSLCNYACRRRD | 2.09
14 | HIKLHSGEKPFKCALCNYACRRRD | 1.5
15 | HIKLHSGEKPFKCFLCNYACRRRD | 2.32
16 | HIKLHSGEKPFKCPLCNYACRRRD | 1.83
17 | HIKLHSGEKPFKCTLCNYACRRRD | 2.42
18 | HIKLHSGEKPFKCMLCNYACRRRD | 1.54
19 | HIKLHSGEKPFKCKLCNYACRRRD | 2.39
20 | HIKLHSGEYPFKCHLCNYACRRRD | 1.58
21 | HIKLHSGEKPFKCHLCNYTCRRRD | 1.81
22 | HIKLHSGEKPFKCHLCNYKCRRRD | 3.11
23 | HIKLHSGEKPFKCHLCNYWCRRRD | 2.52
24 | HIKLHSGEKPFKCHLCNYICRRRD | 2.13

Row | Variant | protein stability index
25 | HIKLHSGEKPFKCHLCNYLCRRRD | 2
26 | HIKLHSGEKPFKCHLCNYPCRRRD | 1.71
27 | HIKLHSGEKPFKCHLCNYDCRRRD | 1.58
28 | HIKLHSGEKPFKCHLCNYMCRRRD | 1.88
29 | HIKLHSGEKPFKCHLCNYFCRRRD | 2.07
30 | HIKLHSGEKPFKCHLCNYRCRRRD | 2.62
31 | HIKLHSGEKPFKCHLCNYGCRRRD | 1.49
32 | HIKLHSGEKPFKCHLCNYNCRRRD | 2.27
33 | HIKLHSGEKPFKCHLCNYHCRRRD | 1.85
34 | HIKLHSGEKPFKCHLCNYQCRRRD | 1.67
35 | HIKLHSGEKPFKCHLCNYSCRRRD | 1.94
36 | HIKLHSGEKPFKCHLCNYCCRRRD | 1.64
37 | HIKLHSGEKPFKCHLCNYECRRRD | 2.1
38 | HIKLHSGEKPFKCHLCNYYCRRRD | 1.32
39 | HIKLHSGEKPFKCHLCNYVCRRRD | 1.4
40 | HIKLHSGEKPFKCHLCWYACRRRD | 1.62
41 | HIKLHSGEKPFKCHLCTYACRRRD | 2.12
42 | HIKLHSGEKPFKCHLCLYACRRRD | 2.07
43 | HIKLHSGEKPFKCHLCAYACRRRD | 2.67
44 | HIKLHSGEKPFKCHLCQYACRRRD | 1.43
45 | HIKLHSGEKPFKCHLCCYACRRRD | 1.3
46 | HIKLHSGEKPFKCHLCHYACRRRD | 1.98
47 | HIKLHSGEKPFKCHLCMYACRRRD | 1.86
48 | HIKLHSGEKPFKCHLCRYACRRRD | 1.53

Row | Variant | protein stability index
49 | HIKLHSGEKPFKCHLCDYACRRRD | 1.47
50 | HIKLHSGEKPFKCHLCSYACRRRD | 1.97
51 | HIKLHSGEKPFKCHLCKYACRRRD | 1.2
52 | HIKLHSGEKPFKCHLCPYACRRRD | 1.56
53 | HIKLHSGEKPFKCHLCFYACRRRD | 2.79
54 | HIKLHSGEKPFKCHLCVYACRRRD | 2.39
55 | HIKLHSGEKPFKCHLCGYACRRRD | 2.05
56 | HIKLHSGEKPFKCHLCIYACRRRD | 2.86
57 | HIKLHSGEKPFKCHLCYYACRRRD | 1.52
58 | HIKLHSGEKPFKSHLCNYACRRRD | 2.36
59 | HIKLHSGEKPFKPHLCNYACRRRD | 2.97
60 | HIKLHSGEKPFKQHLCNYACRRRD | 2.75
61 | HIKLHSGEKPFKLHLCNYACRRRD | 1.85
62 | HIKLHSGEKPFKWHLCNYACRRRD | 2.73
63 | HIKLHSGEKPFKFHLCNYACRRRD | 2.01
64 | HIKLHSGEKPFKEHLCNYACRRRD | 2.58
65 | HIKLHSGEKPFKYHLCNYACRRRD | 1.77
66 | HIKLHSGEKPFKHHLCNYACRRRD | 2.79
67 | HIKLHSGEKPFKDHLCNYACRRRD | 3.34
68 | HIKLHSGEKPFKMHLCNYACRRRD | 2.15
69 | HIKLHSGEKPFKVHLCNYACRRRD | 2.21
70 | HIKLHSGEKPFKRHLCNYACRRRD | 2.26
71 | HIKLHSGEKPFKNHLCNYACRRRD | 3.53
72 | HIKLHSGEKPFKTHLCNYACRRRD | 2.91

Row | Variant | protein stability index
73 | HIKLHSGEKPFKKHLCNYACRRRD | 3
74 | HIKLHSGEKPFKAHLCNYACRRRD | 2.28
75 | HIKLHSGEKPFKGHLCNYACRRRD | 3.04
76 | HIKLHSGEKPFKIHLCNYACRRRD | 2.28
77 | HIKLHSGEKPFKCHLCNEACRRRD | 2.02
78 | HIKLHSGEKPFKCHLCNWACRRRD | 1.16
79 | HIKLHSGEKPFKCHLCNKACRRRD | 1.99
80 | HIKLHSGEKPFKCHLCNIACRRRD | 1.48
81 | HIKLHSGEKPFKCHLCNCACRRRD | 2.04
82 | HIKLHSGEKPFKCHLCNQACRRRD | 2.67
83 | HIKLHSGEKPFKCHLCNDACRRRD | 2.7
84 | HIKLHSGEKPFKCHLCNTACRRRD | 1.54
85 | HIKLHSGEKPFKCHLCNMACRRRD | 2.17
86 | HIKLHSGEKPFKCHLCNSACRRRD | 1.58
87 | HIKLHSGEKPFKCHLCNRACRRRD | 2.15
88 | HIKLHSGEKPFKCHLCNGACRRRD | 2.84
89 | HIKLHSGEKPFKCHLCNNACRRRD | 1.88
90 | HIKLHSGEKPFKCHLCNLACRRRD | 2.23
91 | HIKLHSGEKPFKCHLCNAACRRRD | 2.04
92 | HIKLHSGEKPFKCHLCNPACRRRD | 1.94
93 | HIKLHSGEKPFKCHLCNFACRRRD | 2.07
94 | HIKLHSGEKPFKCHLCNHACRRRD | 1.82
95 | HIKLHSGEKPCKCHLCNYACRRRD | 1.83
96 | HIKLHSGEKPMKCHLCNYACRRRD | 2.21

Row | Variant | protein stability index
97 | HIKLHSGEKPQKCHLCNYACRRRD | 2.41
98 | HIKLHSGEKPDKCHLCNYACRRRD | 2.15
99 | HIKLHSGEKPAKCHLCNYACRRRD | 2.75
100 | HIKLHSGEKPNKCHLCNYACRRRD | 1.77
101 | HIKLHSGEKPEKCHLCNYACRRRD | 2.17
102 | HIKLHSGEKPVKCHLCNYACRRRD | 1.46
103 | HIKLHSGEKPPKCHLCNYACRRRD | 1.67
104 | HIKLHSGEKPGKCHLCNYACRRRD | 2.06
105 | HIKLHSGEKPIKCHLCNYACRRRD | 1.46
106 | HIKLHSGEKPLKCHLCNYACRRRD | 2.12
107 | HIKLHSGEKPHKCHLCNYACRRRD | 2.2
108 | HIKLHSGEKPYKCHLCNYACRRRD | 1.52
109 | HIKLHSGEKPKKCHLCNYACRRRD | 2.6
110 | HIKLHSGEKPTKCHLCNYACRRRD | 1.85
111 | HIKLHSGEKPSKCHLCNYACRRRD | 1.64
112 | HIKLHSGEKPRKCHLCNYACRRRD | 1.74
113 | HIKLHSGEKPFKCHLDNYACRRRD | 2.98
114 | HIKLHSGEKPFKCHLFNYACRRRD | 2.05
115 | HIKLHSGEKPFKCHLTNYACRRRD | 2.8
116 | HIKLHSGEKPFKCHLYNYACRRRD | 1.88
117 | HIKLHSGEKPFKCHLENYACRRRD | 3.02
118 | HIKLHSGEKPFKCHLHNYACRRRD | 2.29
119 | HIKLHSGEKPFKCHLRNYACRRRD | 2.81
120 | HIKLHSGEKPFKCHLNNYACRRRD | 2.8

Row | Variant | protein stability index
121 | HIKLHSGEKPFKCHLPNYACRRRD | 2.2
122 | HIKLHSGEKPFKCHLGNYACRRRD | 3.03
123 | HIKLHSGEKPFKCHLSNYACRRRD | 2.96
124 | HIKLHSGEKPFKCHLWNYACRRRD | 2.14
125 | HIKLHSGEKPFKCHLLNYACRRRD | 2.26
126 | HIKLHSGEKPFKCHLKNYACRRRD | 2.91
127 | HIKLHSGEKPFKCHLANYACRRRD | 2.04
128 | HIKLHSGEKPFKCHLQNYACRRRD | 2.12
129 | HIKLHSGEKPFKCHLMNYACRRRD | 2.04
130 | HIKLHSGEKPFKCHLVNYACRRRD | 1.81
131 | HIKLHSGEKPFKCHLINYACRRRD | 2.35
132 | HIKLHSGEKDFKCHLCNYACRRRD | 2.14
133 | HIKLHSGEKNFKCHLCNYACRRRD | 2.16
134 | HIKLHSGEKAFKCHLCNYACRRRD | 1.55
135 | HIKLHSGEKLFKCHLCNYACRRRD | 1.76
136 | HIKLHSGEKTFKCHLCNYACRRRD | 1.84
137 | HIKLHSGEKMFKCHLCNYACRRRD | 1.58
138 | HIKLHSGEKIFKCHLCNYACRRRD | 2.19
139 | HIKLHSGEKFFKCHLCNYACRRRD | 1.91
140 | HIKLHSGEKVFKCHLCNYACRRRD | 2.26
141 | HIKLHSGEKSFKCHLCNYACRRRD | 1.75
142 | HIKLHSGEKWFKCHLCNYACRRRD | 2.31
143 | HIKLHSGEKKFKCHLCNYACRRRD | 2.73
144 | HIKLHSGEKRFKCHLCNYACRRRD | 1.74

Row | Variant | protein stability index
145 | HIKLHSGEKQFKCHLCNYACRRRD | 1.43
146 | HIKLHSGEKEFKCHLCNYACRRRD | 1.07
147 | HIKLHSGEKCFKCHLCNYACRRRD | 1.76
148 | HIKLHSGEKHFKCHLCNYACRRRD | 1.67
149 | HIKLHSGEKGFKCHLCNYACRRRD | 1.93
150 | HIKLHSGEKYFKCHLCNYACRRRD | 2.88
151 | HIKLHSGEKPFKCHECNYACRRRD | 2.5
152 | HIKLHSGEKPFKCHDCNYACRRRD | 1.74
153 | HIKLHSGEKPFKCHFCNYACRRRD | 1.89
154 | HIKLHSGEKPFKCHMCNYACRRRD | 1.36
155 | HIKLHSGEKPFKCHQCNYACRRRD | 2.47
156 | HIKLHSGEKPFKCHWCNYACRRRD | 2.44
157 | HIKLHSGEKPFKCHICNYACRRRD | 2.44
158 | HIKLHSGEKPFKCHKCNYACRRRD | 2.68
159 | HIKLHSGEKPFKCHPCNYACRRRD | 2.64
160 | HIKLHSGEKPFKCHGCNYACRRRD | 2.43
161 | HIKLHSGEKPFKCHHCNYACRRRD | 2.14
162 | HIKLHSGEKPFKCHNCNYACRRRD | 2.27
163 | HIKLHSGEKPFKCHVCNYACRRRD | 1.78
164 | HIKLHSGEKPFKCHRCNYACRRRD | 2.3
165 | HIKLHSGEKPFKCHACNYACRRRD | 2.28
166 | HIKLHSGEKPFKCHSCNYACRRRD | 2.11
167 | HIKLHSGEKPFKCHTCNYACRRRD | 2.92
168 | HIKLHSGEKPFKCHYCNYACRRRD | 1.63

Row | Variant | protein stability index
169 | HIKLHSGEKPFKCHCCNYACRRRD | 2.66
170 | HIKLHSGEKPFYCHLCNYACRRRD | 2.13
171 | HIKLHSGEKPFPCHLCNYACRRRD | 1.78
172 | HIKLHSGEKPFLCHLCNYACRRRD | 1.82
173 | HIKLHSGEKPFRCHLCNYACRRRD | 2.23
174 | HIKLHSGEKPFICHLCNYACRRRD | 1.78
175 | HIKLHSGEKPFMCHLCNYACRRRD | 2.02
176 | HIKLHSGEKPFVCHLCNYACRRRD | 2.21
177 | HIKLHSGEKPFQCHLCNYACRRRD | 2.28
178 | HIKLHSGEKPFGCHLCNYACRRRD | 2.38
179 | HIKLHSGEKPFHCHLCNYACRRRD | 1.7
180 | HIKLHSGEKPFNCHLCNYACRRRD | 1.67
181 | HIKLHSGEKPFACHLCNYACRRRD | 1.77
182 | HIKLHSGEKPFDCHLCNYACRRRD | 1.68
183 | HIKLHSGEKPFWCHLCNYACRRRD | 1.59
184 | HIKLHSGEKPFECHLCNYACRRRD | 2.29
185 | HIKLHSGEKPFSCHLCNYACRRRD | 1.95
186 | HIKLHSGEKPFCCHLCNYACRRRD | 2.32
187 | HIKLHSGEKPFTCHLCNYACRRRD | 1.68
188 | HIKLHSGEKPFFCHLCNYACRRRD | 2.25
